From patent publication US20250129174A1 (LTZ THERAPEUTICS, published 2025)

Legend:
human 4-1BB = molecular target: T1, human 4-1BB (human, UniProt Q07011 24-255); assay: flow cytometry on CHO cells expressing human 4-1BB, anti-human IgG PE secondary antibody, percent of positive cells
T1 construct: whole, on cells; The construct expressed in the CHO cells is not described further; also called h4-1BB; CD137
Experimental: Binding abilities of 4-1BB×CCR8 bispecific antibodies (BsAb) to CHO cells expressing human 4-1BB were evaluated. About 50,000 CHO cells expressing human 4-1BB were incubated with serially diluted antibodies (4-1BB-2×CCR8-2 (LC1) BsAb, 4-1BB-2×CCR8-2 (LC2) BsAb, and 4-1BB-2×CCR8-2 (HC) BsAb) in FACS buffer (PBS+0.5% BSA) for 30 minutes on ice. After incubation, cells were washed twice and detected with anti-human IgG PE secondary antibody (Jackson ImmunoResearch, Cat. #: 109-116-170). […] As shown in FIGS. 12A-12B, all the three 4-1BB×CCR8 bispecific antibodies bind to CHO cells expressing human 4-1BB very well.

human CCR8 [1] = molecular target: T2, human CCR8 (human, UniProt P51685 1-355); assay: flow cytometry on CHO cells expressing human CCR8, MFI of PE
T2 construct: whole, on cells; The construct expressed in the CHO cells is not described further; also called hCCR8; C-C motif chemokine receptor 8
T2 sequence (P51685 whole entry): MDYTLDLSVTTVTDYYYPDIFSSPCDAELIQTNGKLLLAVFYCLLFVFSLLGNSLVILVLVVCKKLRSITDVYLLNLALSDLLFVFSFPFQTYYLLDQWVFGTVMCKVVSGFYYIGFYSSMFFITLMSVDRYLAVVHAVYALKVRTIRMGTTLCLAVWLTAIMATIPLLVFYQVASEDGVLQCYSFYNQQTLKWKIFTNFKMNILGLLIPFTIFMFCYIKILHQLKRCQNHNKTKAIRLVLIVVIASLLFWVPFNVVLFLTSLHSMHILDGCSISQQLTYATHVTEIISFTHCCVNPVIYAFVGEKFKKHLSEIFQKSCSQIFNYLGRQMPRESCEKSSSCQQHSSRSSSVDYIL
Experimental: Binding abilities of 4-1BB×CCR8 bispecific antibodies to CHO cells expressing human CCR8 were evaluated. About 50,000 CHO cells expressing human CCR8 were incubated with serially diluted antibodies (4-1BB-2×CCR8-2 (LC1) BsAb, 4-1BB-2×CCR8-2 (LC2) BsAb and 4-1BB-2×CCR8-2 (HC) BsAb) in FACS buffer (PBS+0.5% BSA) for 30 minutes on ice. After incubation, cells were washed twice and detected with […] The mean fluorescence intensity (MFI of PE) of each antibody was determined and plotted using GraphPad Prism software (Version 9.4.1; GraphPad Software Inc.). As shown in FIGS. 13A-13B, all the three 4-1BB×CCR8 bispecific antibodies bind to CHO cells expressing human CCR8 very well.

human CCR8 [2] = molecular target: T2, human CCR8; assay: flow cytometry on CHO cells expressing human CCR8, percent of positive cells
Experimental: Binding abilities of 4-1BB×CCR8 bispecific antibodies to CHO cells expressing human CCR8 were evaluated. About 50,000 CHO cells expressing human CCR8 were incubated with serially diluted antibodies (4-1BB-2×CCR8-2 (LC1) BsAb, 4-1BB-2×CCR8-2 (LC2) BsAb and 4-1BB-2×CCR8-2 (HC) BsAb) in FACS buffer (PBS+0.5% BSA) for 30 minutes on ice. […] As shown in FIGS. 13A-13B, all the three 4-1BB×CCR8 bispecific antibodies bind to CHO cells expressing human CCR8 very well.

T1 sequence (Q07011 24-255): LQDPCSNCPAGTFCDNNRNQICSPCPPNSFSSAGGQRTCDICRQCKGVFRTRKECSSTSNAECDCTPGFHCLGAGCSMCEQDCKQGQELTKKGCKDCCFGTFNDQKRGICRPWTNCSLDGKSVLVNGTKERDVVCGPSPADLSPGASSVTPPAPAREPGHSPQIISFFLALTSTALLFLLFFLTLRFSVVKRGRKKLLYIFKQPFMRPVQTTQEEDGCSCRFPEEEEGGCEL

B1: 4-1BB-2×CCR8-2 (LC2) BsAb (bispecific antibody, human IgG1, kappa)
heavy: not shown
light: DIVMTQTPLSLSVTPGQPASISCRSSQSLFHSSGNTYLHWYLQKPGQPPQLLIYKVSNRFSGVPDRFSGSGSGTDFTLKISRVEAEDVGVYYCSQSTHVPFTFGQGTKLEIKRTVAAPSVFIFPPSDEQLKSGTASVVCLLNNFYPREAKVQWKVDNALQSGNSQESVTEQDSKDSTYSLSSTLTLSKADYEKHKVYACEVTHQGLSSPVTKSFNRGECGGGGSGGGGSGGGGSDVVLTQSPLSLPVTLGQPASISCRSSQSLLDSDGNTYLYWFQQRPGQSPRRLIYLVSNLGSGVPDRFSGSGSGTDFTLKISRVEAEDVGVYYCMQPTHAPYTFGQGTKLEIKGGGGSGGGGSGGGGSGGGGSEVQLVQSGAEVKKPGSSVKVSCKASDYTFNDYWVSWVRQAPGQGLEWIGEIYPNSGATNFNGKFRGRATLTVDNSASTAYMELSSLRSEDTAVYYCTREYTRDWFAYWGQGTLVTVSS
notes: The light chain is the CCR8-2 kappa light chain with the 4-1BB-2 scFv (VL-linker-VH) joined by a linker to its C-terminus; also called 4-1BB-2×CCR8-2 (LC2) bispecific antibody
- EC50 (read off the curve) (human 4-1BB): ~700 pM
- binding result (human CCR8 [1]): binds

B2: 4-1BB-2×CCR8-2 (LC1) BsAb (bispecific antibody, human IgG1, kappa)
heavy: not shown
light: DVVLTQSPLSLPVTLGQPASISCRSSQSLLDSDGNTYLYWFQQRPGQSPRRLIYLVSNLGSGVPDRFSGSGSGTDFTLKISRVEAEDVGVYYCMQPTHAPYTFGQGTKLEIKGGGGSGGGGSGGGGSGGGGSEVQLVQSGAEVKKPGSSVKVSCKASDYTFNDYWVSWVRQAPGQGLEWIGEIYPNSGATNFNGKFRGRATLTVDNSASTAYMELSSLRSEDTAVYYCTREYTRDWFAYWGQGTLVTVSSGGGGSGGGGSGGGGSDIVMTQTPLSLSVTPGQPASISCRSSQSLFHSSGNTYLHWYLQKPGQPPQLLIYKVSNRFSGVPDRFSGSGSGTDFTLKISRVEAEDVGVYYCSQSTHVPFTFGQGTKLEIKRTVAAPSVFIFPPSDEQLKSGTASVVCLLNNFYPREAKVQWKVDNALQSGNSQESVTEQDSKDSTYSLSSTLTLSKADYEKHKVYACEVTHQGLSSPVTKSFNRGEC
notes: The light chain is the 4-1BB-2 scFv (VL-linker-VH) joined by a linker to the N-terminus of the CCR8-2 kappa light chain; also called 4-1BB-2×CCR8-2 (LC1) bispecific antibody
- EC50 (read off the curve) (human CCR8 [2]): ~300 pM
- EC50 (read off the curve) (human 4-1BB): ~60 pM
- EC50 (read off the curve) (human CCR8 [1]): ~2000 pM

B3: 4-1BB-2×CCR8-2 (HC) BsAb (bispecific antibody, human IgG1, kappa)
heavy: not shown
light: DIVMTQTPLSLSVTPGQPASISCRSSQSLFHSSGNTYLHWYLQKPGQPPQLLIYKVSNRFSGVPDRFSGSGSGTDFTLKISRVEAEDVGVYYCSQSTHVPFTFGQGTKLEIKRTVAAPSVFIFPPSDEQLKSGTASVVCLLNNFYPREAKVQWKVDNALQSGNSQESVTEQDSKDSTYSLSSTLTLSKADYEKHKVYACEVTHQGLSSPVTKSFNRGEC
notes: The light chain is the CCR8-2 kappa light chain; also called 4-1BB-2×CCR8-2 (HC) bispecific antibody
- EC50 (read off the curve) (human 4-1BB): ~700 pM
- binding result (human CCR8 [1]): binds
